Experimental data from patent US9809835B2, “Quantitative control of sialylation” (Roche Diagnostics Operations, Inc., priority 2013, dated 2017).

T1: Δ89 hST6Gal-I (Homo sapiens, UniProt P15907)
T1 construct: the construct of Epo-AP-Δ89 hST6Gal-I was secreted without the N-terminal amino acids AP; Erythropoietin signal peptide (Epo) (N, cleaved yes); AP spacer (two amino acids) (N, cleaved yes); made in house; host or cells: HEK293 (transient gene expression, secreted)
T1 sequence (P15907 90-406): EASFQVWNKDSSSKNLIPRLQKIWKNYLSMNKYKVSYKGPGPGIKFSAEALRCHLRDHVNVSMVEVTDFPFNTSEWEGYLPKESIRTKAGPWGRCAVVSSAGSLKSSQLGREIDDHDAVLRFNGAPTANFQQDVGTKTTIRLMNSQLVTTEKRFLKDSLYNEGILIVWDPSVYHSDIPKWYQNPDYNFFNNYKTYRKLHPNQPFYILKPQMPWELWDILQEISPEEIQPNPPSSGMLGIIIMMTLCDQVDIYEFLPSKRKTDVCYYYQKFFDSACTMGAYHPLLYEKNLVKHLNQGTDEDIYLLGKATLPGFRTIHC

B1: Δ89 hST6Gal-I: N-terminally truncated human β-galactoside-α-2,6-sialyltransferase I, positions 1 to 89 of SEQ ID NO:1 deleted; amino acid sequence of SEQ ID NO:2 (protein)
chain: T1 sequence (P15907 90-406)
modifications: delta89 truncation variant of hST6Gal-I

Key:
[1] = target: T1, Δ89 hST6Gal-I; experiment: Inhibition of sialidase activity of Δ89 hST6Gal-I by CTP; type: biochemical
Method: The compound cytidine triphosphate (CTP) is a potent inhibitor of sialyltransferases (Scudder P R & Chantler E N B B A 660 (1981) 136-141). […] After 7 h of incubation the G2+2SA content was 94%. […] At different times samples were taken and the content of G2+0SA, G2+1SA and G2+2SA was determined by mass spectrometry. […] After 72 h of incubation 73% of G2+2SA were still present.

[2] = system: MAB<IL-1R>; experiment: Sialylation of humanized monoclonal antibody MAB<IL-1R> using Δ89 hST6Gal-I, glycan content by mass spectrometry; type: biochemical
Method: A highly galactosylated humanized monoclonal antibody IgG4 MAB<IL-1R>(WO 2005/023872) was used in sialylation experiments. […] The samples were incubated at 37° C. for a defined time. To stop the reaction the samples were frozen at −20° C. For mass analysis 100 μl denaturing buffer (6 M guanidinium chloride) and 30 μl TCEP (0.1 mM, diluted in denaturing buffer) were added to the samples and the samples were incubated at 37° C. for 1 h. The sample were buffered in electrospray-medium (20% ACN, 1% FA) using pre-equilibrated illustra™ Nap5-Columns (GE-Healthcare). Samples were analyzed by electrospray ionization mass spectrometry and the content of G2+0SA, G2+1SA and G2+2SA N-glycans was determined. A Micromass Q-Tof Ultima and a Synapt G2 HDMS device (Waters UK) were used, the software used was MassLynx V 4.1. To determine the kinetics of the sialylation the reaction was incubated up to 72 h.

Molecule | degradation of G2+2SA caused by the sialidase activity ([1]; CTP 0.67 mM, compared to inhibitor-free conditions) | G2+2SA still present ([1]; after 72 h of incubation, CTP added after 7 h, final concentration 0.67 mM) | content of the bi-sialylated form G2+2SA ([2]; after 2 hours of incubation, 37° C., 30 μg enzyme/300 μg MAB<IL-1R>, CMP-NANA donor) | G2+2SA content ([2]; after 7 h of incubation, before addition of CTP (Example 11)) | G2+1SA content ([2]; after an incubation of 48 h, 37° C., 30 μg enzyme/300 μg MAB<IL-1R>, CMP-NANA donor) | dominant glycan species of MAB<IL-1R> (mass spectrum) ([2]; t=8 h) | dominant glycan species of MAB<IL-1R> (mass spectrum) ([2]; t=48 h)
Nc1ccn([C@@H]2O[C@H](COP(=O)(O)OP(=O)(O)OP(=O)(O)O)[C@@H](O)[C@H]2O)c(=O)n1 [CTP, cytidine triphosphate] | significantly reduced | 73% |  |  |  |  | 
B1 |  |  | 88% | 94% | 71% | G2+2SA is the dominant form | G2+1SA is the most abundant species
